Sequences and labels used below:
B1: Fab 5353 (Fab, V domains shown)
VH: EVQLVESGGGLVQPGGSLRLSCAASGFTFSSYWIHWVRQAPGKGLEWVSVISGDGDTTYYADSVKGRFTISRDNSKNTLYLQLNSLRAEDTAVYYCARSRGLVLDAFDYWGQGTLVTVSS
VL: DIQLTQSPSSLSASVGDRVTITCRASQSVSGRFLAWYQQKPGKAPKLLIYDASSLESGVPSRFSGSGSGTDFTLTISSLQPEDFATYYCQQYDYWPPYTFGQGTKVEIKR
notes: Fab from E. coli; also called VH26/VL26
B2: Fab 5316 (Fab, V domains shown)
VH: EVQLVESGGGLVQPGGSLRLSCAASGYSISSGYHWAWIRQAPGKGLEWVSSISGDGSSTYYADSVKGRFTISRDNSKNTLYLQLNSLRAEDTAVYYCAREGSDAVTGDWFAYWGQGTLVTVSS
VL: DIQLTQSPSSLSASVGDRVTITCRASQGVGTYLAWYQQKPGKAPKLLIYDASSLESGVPSRFSGSGSGTDFTLTISSLQPEDFATYYCQQGYSLWTFGQGTKVEIKR
notes: Fab from E. coli; also called VH17/VL17
B3: AG10080 (antibody, human IgG4 S228P, kappa, V domains shown)
VH: EVQLVESGGGLVQPGGSLRLSCAASGYSISSGYYWDWIRQAPGKGLEWVSSISGDGDTTYYADSVKGRFTISRDNSKNTLYLQLNSLRAEDTAVYYCAREYYGYGYALDYWGQGTLVTVSS
VL: DIQLTQSPSSLSASVGDRVTITCRASQGISSYLAWYQQKPGKAPKLLIYDASSLESGVPSRFSGSGSGTDFTLTISSLQPEDFATYYCQQYYSTPLTFGQGTKVEIKR
notes: also called IgG of Fab 4217
B4: AG10086 (antibody, human IgG4 S228P, kappa, V domains shown)
VH: EVQLVESGGGLVQPGGSLRLSCAASGYSISSGHHWAWIRQAPGKGLEWVSVISGSGSSTYYADSVKGRFTISRDNSKNTLYLQLNSLRAEDTAVYYCAREGSDTVLGDWFAYWGQGTLVTVSS
VL: DIQLTQSPSSLSASVGDRVTITCRASQGISSYLAWYQQKPGKAPKLLIYDASNLETGVPSRFSGSGSGTDFTLTISSLQPEDFATYYCQQGYSTWTFGQGTKVEIKR
notes: also called IgG of Fab 5409
B5: AG10079 (antibody, human IgG4 S228P, kappa, V domains shown)
VH: EVQLVESGGGLVQPGGSLRLSCAASGFSLSTGGVGVSWIRQAPGKGLEWVSSISGSGGTTYYADSVKGRFTISRDNSKNTLYLQLNSLRAEDTAVYYCARDDLYSWYFDVWGQGTLVTVSS
VL: DIQLTQSPSSLSASVGDRVTITCRASQGIGSSLAWYQQKPGKAPKLLIYAASSLQSGVPSRFSGSGSGTDFTLTISSLQPEDFATYYCQQGYYTWTFGQGTKVEIKR
notes: also called IgG of Fab 4074
B6: AG10063 (antibody, human IgG4 S228P, kappa, V domains shown)
VH: EVQLVESGGGLVQPGGSLRLSCAASGFSLSTGGVAVGWIRQAPGKGLEWLALIDWDGDKSYSTSLKSRLTISRDNSKNTLYLQLNSLRAEDTAVYYCAREGSTAVVGDWFDYWGQGTLVTVSS
VL: DIQLTQSPSSLSASVGDRVTITCRASQGISRYLAWYQQKPGKAPKLLIYDASNRATGIPSRFSGSGSGTDFTLTISSLQPEDFATYYCQQGYSLWTFGQGTKVEIKR
notes: also called IgG of Fab 5413
B7: AG10060 (antibody, human IgG4 S228P, kappa, V domains shown)
VH: EVQLVESGGGLVQPGGSLRLSCAASGFSLSTSGVGVGWIRQAPGKGLEWLALIDWADDKYYSPSLKSRLTISRDNSKNTLYLQLNSLRAEDTAVYYCARGGSDAVLGDWFAYWGQGTLVTVSS
VL: DIQLTQSPSSLSASVGDRVTITCRASQGIGSYLAWYQQKPGKAPKLLIYDASNLETGVPSRFSGSGSGTDFTLTISSLQPEDFATYYCQQGYSIWTFGQGTKVEIKR
notes: also called IgG of Fab 5359
B8: AG10057 (antibody, human IgG4 S228P, kappa, V domains shown)
VH: EVQLVESGGGLVQPGGSLRLSCAASGFSLSTSGVAVGWIRQAPGKGLEWLALIDWADDKYYSPSLKSRLTISRDNSKNTLYLQLNSLRAEDTAVYYCAREGSDAVLGDWFAYWGQGTLVTVSS
VL: DIQLTQSPSSLSASVGDRVTITCRASQDISTFLAWYQQKPGKAPKLLIYDASSLESGVPSRFSGSGSGTDFTLTISSLQPEDFATYYCQQAYSIWTFGQGTKVEIKR
notes: also called IgG of Fab 5303
B9: AG10125 (antibody, human IgG4 S228P, kappa, V domains shown)
VH: EVQLVESGGGLVQPGGSLRLSCAASGFSLSTGGVAVGWIRQAPGKGLEWLALIDWAGDKSYSTSLKSRLTISRDNSKNTLYLQLNSLRAEDTAVYYCARGGSDTVLGDWFAYWGQGTLVTVSS
VL: DIQLTQSPSSLSASVGDRVTITCRASQGVSPYLAWYQQKPGKAPKLLIYDASNRATGIPSRFSGSGSGTDFTLTISSLQPEDFATYYCQQGYSTWTFGQGTKVEIKR
notes: also called IgG of Fab 5314
B10: AG10061 (antibody, human IgG4 S228P, kappa, V domains shown)
VH: EVQLVESGGGLVQPGGSLRLSCAASGFSLSTSGVAVAWIRQAPGKGLEWLALIDWDDDKRYSTSLKSRLTISRDNSKNTLYLQLNSLRAEDTAVYYCAREGSTTVVGDWFDYWGQGTLVTVSS
VL: DIQLTQSPSSLSASVGDRVTITCRASQGIGTYLAWYQQKPGKAPKLLIYDASNRATGIPSRFSGSGSGTDFTLTISSLQPEDFATYYCQQGYSLWTFGQGTKVEIKR
B11: AG10126 (antibody, human IgG4 S228P, kappa, V domains shown)
VH: EVQLVESGGGLVQPGGSLRLSCAASGYSISSGYHWAWIRQAPGKGLEWVSSISGDGSSTYYADSVKGRFTISRDNSKNTLYLQLNSLRAEDTAVYYCAREGSDAVTGDWFAYWGQGTLVTVSS
VL: DIQLTQSPSSLSASVGDRVTITCRASQGVGTYLAWYQQKPGKAPKLLIYDASSLESGVPSRFSGSGSGTDFTLTISSLQPEDFATYYCQQGYSLWTFGQGTKVEIKR
notes: also called IgG of Fab 5316
B12: AG10127 (antibody, human IgG4 S228P, kappa, V domains shown)
VH: EVQLVESGGGLVQPGGSLRLSCAASGFSLSTSGVAVGWIRQAPGKGLEWLALIDWDDDKYYSTSLKSRLTISRDNSKNTLYLQLNSLRAEDTAVYYCAREGSTAVAGDWFAYWGQGTLVTVSS
VL: DIQLTQSPSSLSASVGDRVTITCQASQDIRTFLAWYQQKPGKAPKLLIYDASNRATGIPSRFSGSGSGTDFTLTISSLQPEDFATYYCQQGYSTWTFGQGTKVEIKR
notes: also called IgG of Fab 5318
B13: AG10128 (antibody, human IgG4 S228P, kappa, V domains shown)
VH: EVQLVESGGGLVQPGGSLRLSCAASGFSLSTGGVAVGWIRQAPGKGLEWLALIDWAGDKSYSTSLKSRLTISRDNSKNTLYLQLNSLRAEDTAVYYCAREGEDAVTGDWFAYWGQGTLVTVSS
VL: DIQLTQSPSSLSASVGDRVTITCQASQDIRTYLAWYQQKPGKAPKLLIYDASNRATGIPSRFSGSGSGTDFTLTISSLQPEDFATYYCQQGYSIWTFGQGTKVEIKR
notes: also called IgG of Fab 5342
B14: AG10132 (antibody, human IgG4 S228P, kappa, V domains shown)
VH: EVQLVESGGGLVQPGGSLRLSCAASGYSITSGYHWSWIRQAPGKGLEWVSSISGYGDTTYYADSVKGRFTISRDNSKNTLYLQLNSLRAEDTAVYYCAREGSDTVLGDWFAYWGQGTLVTVSS
VL: DIQLTQSPSSLSASVGDRVTITCQASQDIRTYLAWYQQKPGKAPKLLIYDASNLETGVPSRFSGSGSGTDFTLTISSLQPEDFATYYCQQGYSIWTFGQGTKVEIKR
notes: also called IgG of Fab 5408
B15: AG10084 (antibody, human IgG4 S228P, kappa, V domains shown)
VH: EVQLVESGGGLVQPGGSLRLSCAASGYSITSGHYWNWIRQAPGKGLEWVSGISGDGSSTYYADSVKGRFTISRDNSKNTLYLQLNSLRAEDTAVYYCARGGSDAVLGDWFAYWGQGTLVTVSS
VL: DIQLTQSPSSLSASVGDRVTITCRASQSISSYLAWYQQKPGKAPKLLIYDASNLETGVPSRFSGSGSGTDFTLTISSLQPEDFATYYCQQGYSTWTFGQGTKVEIKR
B16: AG10054 (antibody, human IgG4 S228P, kappa, V domains shown)
VH: EVQLVESGGGLVQPGGSLRLSCAASGFSLSTSGVAVSWIRQAPGKGLEWIGIINPNFGDTNYAQKFQGRVTISRDNSKNTLYLQLNSLRAEDTAVYYCARDEYYGGSYYFDYWGQGTLVTVSS
VL: DIQLTQSPSSLSASVGDRVTITCRASQDVRTAVAWYQQKPGKAPKLLIYDASNLETGVPSRFSGSGSGTDFTLTISSLQPEDFATYYCQQSYDWPPTFGQGTKVEIKR
notes: also called IgG of Fab 4072
B17: AG10062 (antibody, human IgG4 S228P, kappa, V domains shown)
VH: EVQLVESGGGLVQPGGSLRLSCAASGYSISSGYHWAWIRQAPGKGLEWIGEIYHSGSTYYSPSLKSRVTISRDNSKNTLYLQLNSLRAEDTAVYYCARSPYYYGVFDYWGQGTLVTVSS
VL: DIQLTQSPSSLSASVGDRVTITCSASSRVGSVYWYQQKPGKAPKLLIYDASNLETGVPSRFSGSGSGTDFTLTISSLQPEDFATYYCQQYTHDPVTFGQGTKVEIKR
notes: also called IgG of Fab 5404

The target of one experiment is T1, CD137-hisFc fusion protein (Sino Biological Cat 10041-H03H) (human, UniProt Q07011 24-186).
T1 construct: Bought; also called recombinant human CD137 (fused with human Fc and His tag); not shown: His tag and human Fc
The experiment can be described thus: BLI Octet, Fab. Background: In BLI a coated tip is dipped into the sample, and binding shifts an interference pattern.
As to B1, binding was characterised by a dissociation constant (Kd) of 16.1 nM, the off-rate (koff) came out at 0.00597 s⁻¹ and the kon came to 370000 M⁻¹ s⁻¹.
The molecule B2 displayed a Kd of 11.4 nM, a koff of 0.00161 s⁻¹ and a kon of 141000 M⁻¹ s⁻¹.

The next experiment concerns the target T1, CD137-hisFc fusion protein (Sino …). The experiment can be described thus: BLI Octet, Fab. This is another data set of the same source.
As for B1, binding was put at a Kd of 16 nM, the koff came out at 0.006 s⁻¹ and the kon was determined as 370000 M⁻¹ s⁻¹.
The like results for B2 were, in that order, 11 nM, 0.0016 s⁻¹ and 140000 M⁻¹ s⁻¹.

In a further experiment the target is T2, human CD137-His6 (Sino Biological #10041-H08H) (human, UniProt Q07011 24-186).
T2 construct: Bought; also called human CD137 protein; not shown: His6 tag
The experiment can be described thus: SPR Biacore, IgG.
The molecule B3 displayed a Kd of 10 nM, a koff of 0.012 s⁻¹ and a kon of 1.2e+06 M⁻¹ s⁻¹.
In turn, B4 came in with a Kd of 46 nM, a koff of 0.0045 s⁻¹ and a kon of 100000 M⁻¹ s⁻¹.
The like results for B5 were, in that order, 1.4 nM, 0.00027 s⁻¹ and 190000 M⁻¹ s⁻¹.
B6 registered a Kd of 0.99 nM, a koff of 0.00039 s⁻¹ and a kon of 390000 M⁻¹ s⁻¹.
In turn, B7 showed a Kd of 1.1 nM, a koff of 0.00025 s⁻¹ and a kon of 220000 M⁻¹ s⁻¹.
As for B8, the affinity, expressed as Kd, was 7.9 nM; the off-rate constant (koff) is 0.0061 s⁻¹; the kon was determined as 770000 M⁻¹ s⁻¹.
The like results for B9 were, in that order, 15 nM, 0.0017 s⁻¹ and 110000 M⁻¹ s⁻¹.
The like results for B10 were, in that order, 3.6 nM, 0.00078 s⁻¹ and 220000 M⁻¹ s⁻¹.
With B11, binding was characterised by a dissociation constant (Kd) of 14 nM.
On to B12, for which binding was characterised by a dissociation constant (Kd) of 9.6 nM, the koff was determined as 0.0029 s⁻¹ and the association rate constant (kon) amounted to 300000 M⁻¹ s⁻¹.
The like results for B13 were, in that order, 3 nM, 0.00037 s⁻¹ and 120000 M⁻¹ s⁻¹.
The like results for B14 were, in that order, 69 nM, 0.014 s⁻¹ and 200000 M⁻¹ s⁻¹.
The like results for B15 were, in that order, 43 nM, 0.0028 s⁻¹ and 66000 M⁻¹ s⁻¹.
Consider B16, for which the Kd stood at 13 nM, the koff stood at 0.0019 s⁻¹ and the kon was determined as 140000 M⁻¹ s⁻¹.
The like results for B17 were, in that order, 5.9 nM, 0.00094 s⁻¹ and 160000 M⁻¹ s⁻¹.

A word on the Kd: it is the free concentration of one partner at which half of the binding sites on the other are occupied at equilibrium, for simple one-to-one binding. What is called koff is a measure of how fast the partners let go of each other. Higher therefore signals fast dissociation. As a reminder, the kon is a measure of how fast the partners come together.

Source of the values: patent US20190055314A1 (ADAGENE, published 2019).
